Assay [1] has as its target T1, SARS-2 spike (2P-stabilized ectodomain with foldon) (SARS-CoV-2 Wuhan-Hu-1, UniProt P0DTC2, K986 substituted with proline | V987 substituted with proline). The assay is described as follows: far-Western, overlay or dot blot. The following applies: both partners purified.
Assay [2] concerns the target T1, SARS-2 spike (2P-stabilized ectodomain …). The assay can be described thus: ELISA. Background: An ELISA detects its analyte on a solid surface through an enzyme-linked reagent.
The target in assay [3] is T2, SARS-2 HexaPro S2 (SARS-CoV-2 Wuhan-Hu-1, HexaPro, proline substitution at position 817 | proline substitution at position 892 | …). The assay can be described thus: cryo-EM structure. The following applies: both partners purified.
The target of assay [4] is T2, SARS-2 HexaPro S2. The assay can be described thus: BLI + SPR. Particulars: both partners purified.
Assay [5] concerns the target Authentic wild-type SARS-2 spike, full-length unstabilized, on the cell surface (Severe acute respiratory syndrome …, UniProt P0DTC2). The assay can be described thus: flow cytometry on cells. The following applies: one partner purified. For orientation: Flow cytometry measures light scatter and fluorescence of single cells or particles in a stream.
In a further assay the target is SARS-2 HexaPro spike (SARS-CoV-2 Wuhan-Hu-1, HexaPro; T4 …, proline substitution at position 817 | proline substitution at position 892 | …). The assay is described as follows: BLI. Particulars: both partners purified.
In assay [6] the target is SARS-2 4P-DS spike (4P with an additional stabilizing disulfide) (SARS-CoV-2 Wuhan-Hu-1, UniProt P0DTC2, disulfide bond between amino acids 965 and 1003 (965) | disulfide bond between …, disulfide bond between amino acids 965 and 1003; Alexa Fluor 647 label in the yeast display experiment). The assay can be described thus: SPR. The following applies: both partners purified.

Data on six molecules can be found in paper PMC10030117 (eLife, 2023).

What is called stoichiometry N is the number of molecules, sites or subunits per partner or assembly. What is called Kd is the constant that tells how readily two partners part at equilibrium. By kon is commonly meant the rate constant with which the complex forms.

B1: Antibody 3E11, full-length (mouse variable region-human IgG1 constant region chimera) (antibody, V domains shown)
VH: EVQLQQSGTVLARPGASVKMSCKASGYSFTNYWVHWVKQRPGQGLEWIGAIYPGNGDTTYNQKFKDKAKLTAVTSTSSAYMDLSSLTSEDSAVYYCTRRANYGSRYDYWGQGTTLTVSS
VL: DIVMTQSTSSLSASLGDRVTISCRASQGINNYLNWYQQKPDGTVKLLIYHTSRLHSGVPSRFSGSGSGTDYSLTISNLEQEDIATYFCQQGDTLPYTFGGGTKLEIK
notes: IgG1
For B1, the binding result in assay [1] was “binds”.

B2: 3E11 scFv displayed on M13 phage (scFv, V domains shown)
VH: EVQLQQSGTVLARPGASVKMSCKASGYSFTNYWVHWVKQRPGQGLEWIGAIYPGNGDTTYNQKFKDKAKLTAVTSTSSAYMDLSSLTSEDSAVYYCTRRANYGSRYDYWGQGTTLTVSS
VL: DIVMTQSTSSLSASLGDRVTISCRASQGINNYLNWYQQKPDGTVKLLIYHTSRLHSGVPSRFSGSGSGTDYSLTISNLEQEDIATYFCQQGDTLPYTFGGGTKLEIK
notes: VL-linker-VH order
Consider B2, for which, in assay [2] (one partner purified), the binding result is given as “binds”.

B3: 3A3 Fab (Fab, V domains shown)
VH: QVQLQQSGAELLKPGASVKLSCTASGFNIKDTYIHWLKQRPEQGLEWIGRIGPAIGNTIYAPKFQGKATITTDTSSNTAYLQLSSLTSEDTAVYYCARYYGSSYYYFDYWGQGTTLTVSS
VL: DIVMTQSAPSVPVTPGESVSISCRSSKSLLHSNGNTYLYWFLQRPGQSPQLLIYRMSNLASGVPDRFSGSGSGTAFTLRISRVEAEDVGVYYCMQYLEYPLTFGAGTKLELK
For B3, the “stoichiometry N” value in the assay with SARS-2 HexaPro S2 [3] came out at 1 Fab per S2 protomer. The Kd with SARS-2 HexaPro S2 [4] is roughly 3 nM.

B4: Antibody 3A3, full-length (mouse variable region-human IgG1 constant region chimera) (antibody, V domains shown)
VH: QVQLQQSGAELLKPGASVKLSCTASGFNIKDTYIHWLKQRPEQGLEWIGRIGPAIGNTIYAPKFQGKATITTDTSSNTAYLQLSSLTSEDTAVYYCARYYGSSYYYFDYWGQGTTLTVSS
VL: DIVMTQSAPSVPVTPGESVSISCRSSKSLLHSNGNTYLYWFLQRPGQSPQLLIYRMSNLASGVPDRFSGSGSGTAFTLRISRVEAEDVGVYYCMQYLEYPLTFGAGTKLELK
As for B4, the binding result in assay [5] is recorded as “no binding (tested: ~1–300 nM)”. The molecule further came in with an on-rate (kon) in the assay with SARS-2 HexaPro spike of 800000 ± 100000 M⁻¹ s⁻¹. Besides, the “fold worse ELISA EC50 (stressed against fresh)” value in assay [2] (both partners purified) is roughly 150 fold.

B5: RAY53 Fab (Fab, V domains shown)
VH: QVQLVQSGAVVLKPGASVKLSCKASGFNIKNTYIHWLKQAPGQRLEWIGRIGPAIGNTIYAPKFQGKATITTDTSASTAYLELSSLRSEDTAVYYCARYYGSSYYYLDYWGQGTTVTVSS
VL: DIVMTQSPLSVPVTPGEPVSISCRSSKSLLHSNGNTYLYWFLQKPGQSPQLLIARMSTLASGVPDRFSGSGSGTAFTLKISRVEAEDVGVYYCMQYLEYPLTFGAGTKLEIK
As for B5, the Kd in assay [6] was found to be 1300 ± 200 nM.

B6: Antibody RAY53, full-length human IgG1 (antibody, V domains shown)
VH: QVQLVQSGAVVLKPGASVKLSCKASGFNIKNTYIHWLKQAPGQRLEWIGRIGPAIGNTIYAPKFQGKATITTDTSASTAYLELSSLRSEDTAVYYCARYYGSSYYYLDYWGQGTTVTVSS
VL: DIVMTQSPLSVPVTPGEPVSISCRSSKSLLHSNGNTYLYWFLQKPGQSPQLLIARMSTLASGVPDRFSGSGSGTAFTLKISRVEAEDVGVYYCMQYLEYPLTFGAGTKLEIK
On to B6, for which the Kd is 100 ± 20 nM in assay [5] and 100 ± 16 nM in assay [6]. Moreover, the binding result in assay [2] (both partners purified) is listed as “binds”.
